Data from paper PMC9482650, “Quantitative fragmentomics allow affinity mapping of interactomes” (Nature Communications, 2022).

T1: APBA2_2, Q99767
T1 sequence (Q99767 654-744, limits assumed, looked up): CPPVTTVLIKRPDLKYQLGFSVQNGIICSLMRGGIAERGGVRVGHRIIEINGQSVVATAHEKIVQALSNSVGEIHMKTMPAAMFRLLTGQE

T2: GRIP1_3, Q9Y3R0
T2 sequence (Q9Y3R0 247-346, limits assumed, looked up): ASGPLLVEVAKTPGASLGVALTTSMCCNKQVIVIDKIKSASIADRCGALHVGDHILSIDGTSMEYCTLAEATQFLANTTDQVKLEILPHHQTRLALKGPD

T3: GRIP1_5, Q9Y3R0
T3 sequence (Q9Y3R0 568-668, limits assumed, looked up): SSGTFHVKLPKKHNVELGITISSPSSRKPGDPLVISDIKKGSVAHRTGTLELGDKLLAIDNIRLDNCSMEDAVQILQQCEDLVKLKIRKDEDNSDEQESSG

T4: PDZRN3_1, Q9UPQ7
T4 sequence (Q9UPQ7 244-349, limits assumed, looked up): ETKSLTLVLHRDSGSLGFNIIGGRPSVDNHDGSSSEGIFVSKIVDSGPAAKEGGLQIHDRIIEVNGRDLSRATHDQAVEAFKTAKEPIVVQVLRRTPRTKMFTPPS

T5: RADIL, Q96JH8
T5 sequence (Q96JH8 971-1071, limits assumed, looked up): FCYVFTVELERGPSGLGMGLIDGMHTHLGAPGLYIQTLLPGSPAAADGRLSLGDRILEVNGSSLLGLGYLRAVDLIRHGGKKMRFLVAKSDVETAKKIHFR

T6: SNTB1, Q13884
T6 sequence (Q13884 107-205, limits assumed, looked up): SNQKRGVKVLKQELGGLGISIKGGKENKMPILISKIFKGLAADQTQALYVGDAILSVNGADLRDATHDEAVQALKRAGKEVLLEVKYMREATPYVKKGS

T7: TX1BP3, O14907
T7 sequence (O14907 10-122, limits assumed, looked up): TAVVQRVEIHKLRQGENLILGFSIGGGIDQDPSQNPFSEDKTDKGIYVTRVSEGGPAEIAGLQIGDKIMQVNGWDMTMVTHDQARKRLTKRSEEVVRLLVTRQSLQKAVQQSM


Key:
Experiment in all cases: holdup assay
Design in all cases: key: below the threshold = too weak to quantify, mostly under pKd 3.1 to 4
Conditions in all cases: plain residues with an end cap or a label only (N-terminal biotin on a linker: ado-ado)
APBA2_2, Q99767 = molecular target: T1, APBA2_2, Q99767
CASK, O14936 = molecular target: CASK, O14936
DLG4_2, P78352 = molecular target: DLG4_2, P78352
DLG4_3, P78352 = molecular target: DLG4_3, P78352
FRMPD3, Q5JV73 = molecular target: FRMPD3, Q5JV73
FRMPD4, Q14CM0 = molecular target: FRMPD4, Q14CM0
GORASP1, Q9BQQ3 = molecular target: GORASP1, Q9BQQ3
GRIP1_3, Q9Y3R0 = molecular target: T2, GRIP1_3, Q9Y3R0
GRIP1_5, Q9Y3R0 = molecular target: T3, GRIP1_5, Q9Y3R0
GRIP2_4, Q9C0E4 = molecular target: GRIP2_4, Q9C0E4
GRIP2_7, Q9C0E4 = molecular target: GRIP2_7, Q9C0E4
IL16_4, Q14005 = molecular target: IL16_4, Q14005
Inadl_1, Q8NI35 = molecular target: Inadl_1, Q8NI35
Inadl_6, Q8NI35 = molecular target: Inadl_6, Q8NI35
LNX1_1, Q8TBB1 = molecular target: LNX1_1, Q8TBB1
LNX1_2, Q8TBB1 = molecular target: LNX1_2, Q8TBB1
LNX1_3, Q8TBB1 = molecular target: LNX1_3, Q8TBB1
MAGI1_1, Q96QZ7 = molecular target: MAGI1_1, Q96QZ7
MAGI1_2, Q96QZ7 = molecular target: MAGI1_2, Q96QZ7
MAGI2_5, Q86UL8 = molecular target: MAGI2_5, Q86UL8
MAGI2_6, Q86UL8 = molecular target: MAGI2_6, Q86UL8
PDZRN3_1, Q9UPQ7 = molecular target: T4, PDZRN3_1, Q9UPQ7
PDZRN4_1, Q6ZMN7 = molecular target: PDZRN4_1, Q6ZMN7
PICK1, Q9NRD5 = molecular target: PICK1, Q9NRD5
RADIL, Q96JH8 = molecular target: T5, RADIL, Q96JH8
SCRIB_2, Q14160 = molecular target: SCRIB_2, Q14160
SCRIB_3, Q14160 = molecular target: SCRIB_3, Q14160
SNTB1, Q13884 = molecular target: T6, SNTB1, Q13884
SNX27, Q96L92 = molecular target: SNX27, Q96L92
TX1BP3, O14907 = molecular target: T7, TX1BP3, O14907

Sequence of Inadl_1, Q8NI35 (Q8NI35 113-229): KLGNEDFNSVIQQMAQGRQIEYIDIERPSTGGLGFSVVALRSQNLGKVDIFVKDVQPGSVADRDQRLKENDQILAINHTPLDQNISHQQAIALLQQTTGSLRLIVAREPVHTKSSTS
Sequence of GORASP1, Q9BQQ3 (Q9BQQ3 1-208): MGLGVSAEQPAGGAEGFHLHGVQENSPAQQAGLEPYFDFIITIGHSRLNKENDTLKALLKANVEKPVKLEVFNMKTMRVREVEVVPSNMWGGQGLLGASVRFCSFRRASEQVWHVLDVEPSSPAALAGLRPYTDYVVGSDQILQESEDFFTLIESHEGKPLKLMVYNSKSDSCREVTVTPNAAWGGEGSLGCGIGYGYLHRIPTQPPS
Sequence of PICK1, Q9NRD5 (Q9NRD5 17-115): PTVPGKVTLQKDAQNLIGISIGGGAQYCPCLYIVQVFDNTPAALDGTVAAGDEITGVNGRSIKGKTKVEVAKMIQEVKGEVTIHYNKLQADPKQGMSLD
Sequence of LNX1_2, Q8TBB1 (Q8TBB1 371-470): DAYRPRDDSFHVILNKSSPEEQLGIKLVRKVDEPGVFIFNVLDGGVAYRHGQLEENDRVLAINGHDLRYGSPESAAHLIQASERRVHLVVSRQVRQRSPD
Sequence of FRMPD3, Q5JV73 (Q5JV73 12-100): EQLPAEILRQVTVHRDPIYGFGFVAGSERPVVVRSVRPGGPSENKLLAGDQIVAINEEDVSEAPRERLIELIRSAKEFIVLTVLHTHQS
Sequence of FRMPD4, Q14CM0 (Q14CM0 67-160): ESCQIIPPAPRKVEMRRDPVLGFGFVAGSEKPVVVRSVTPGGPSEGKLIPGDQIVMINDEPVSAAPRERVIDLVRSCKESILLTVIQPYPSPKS
Sequence of GRIP2_7, Q9C0E4 (Q9C0E4 934-1023): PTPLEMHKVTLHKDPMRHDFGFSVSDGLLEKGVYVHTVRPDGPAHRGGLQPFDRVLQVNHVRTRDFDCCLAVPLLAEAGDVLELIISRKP
Sequence of DLG4_2, P78352 (P78352 155-259): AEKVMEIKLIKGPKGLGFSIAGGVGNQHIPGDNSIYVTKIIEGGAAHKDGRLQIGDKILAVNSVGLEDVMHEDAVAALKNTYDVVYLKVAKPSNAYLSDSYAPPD
Sequence of IL16_4, Q14005 (Q14005 1229-1329): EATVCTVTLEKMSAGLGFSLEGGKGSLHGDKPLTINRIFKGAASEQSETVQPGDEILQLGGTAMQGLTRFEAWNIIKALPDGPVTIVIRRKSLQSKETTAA
Sequence of MAGI1_1, Q96QZ7 (Q96QZ7 1-106): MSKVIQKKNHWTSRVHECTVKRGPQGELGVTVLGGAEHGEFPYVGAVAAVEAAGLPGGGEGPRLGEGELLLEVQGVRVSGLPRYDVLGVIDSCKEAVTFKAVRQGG
Sequence of PDZRN4_1, Q6ZMN7 (Q6ZMN7 213-318): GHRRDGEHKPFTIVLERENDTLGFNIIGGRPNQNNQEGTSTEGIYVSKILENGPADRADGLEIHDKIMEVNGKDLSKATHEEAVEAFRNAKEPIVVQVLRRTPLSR
Sequence of MAGI2_5, Q86UL8 (Q86UL8 915-1017): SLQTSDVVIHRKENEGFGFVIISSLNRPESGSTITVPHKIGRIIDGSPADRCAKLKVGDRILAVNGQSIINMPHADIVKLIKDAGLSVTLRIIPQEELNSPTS
Sequence of DLG4_3, P78352 (P78352 306-403): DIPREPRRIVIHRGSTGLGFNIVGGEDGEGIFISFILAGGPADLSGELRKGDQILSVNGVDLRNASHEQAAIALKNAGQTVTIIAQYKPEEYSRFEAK
Sequence of Inadl_6, Q8NI35 (Q8NI35 1058-1167): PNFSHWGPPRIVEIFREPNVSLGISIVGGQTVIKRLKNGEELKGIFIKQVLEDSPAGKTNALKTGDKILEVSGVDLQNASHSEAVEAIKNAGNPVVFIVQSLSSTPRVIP
Sequence of CASK, O14936 (O14936 487-570): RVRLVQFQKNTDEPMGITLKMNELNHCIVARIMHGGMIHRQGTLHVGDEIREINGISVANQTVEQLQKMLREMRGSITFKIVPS
Sequence of LNX1_3, Q8TBB1 (Q8TBB1 500-596): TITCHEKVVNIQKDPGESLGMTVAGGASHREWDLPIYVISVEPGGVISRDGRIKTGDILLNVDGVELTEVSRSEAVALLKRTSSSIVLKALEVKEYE
Sequence of LNX1_1, Q8TBB1 (Q8TBB1 261-371): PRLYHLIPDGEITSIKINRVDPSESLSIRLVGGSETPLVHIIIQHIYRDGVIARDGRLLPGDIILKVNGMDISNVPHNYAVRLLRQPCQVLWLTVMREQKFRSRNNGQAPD
Sequence of SCRIB_3, Q14160 (Q14160 999-1103): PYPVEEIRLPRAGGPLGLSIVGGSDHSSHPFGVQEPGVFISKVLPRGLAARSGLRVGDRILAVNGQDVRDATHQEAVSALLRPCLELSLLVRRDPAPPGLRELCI
Sequence of MAGI2_6, Q86UL8 (Q86UL8 1141-1229): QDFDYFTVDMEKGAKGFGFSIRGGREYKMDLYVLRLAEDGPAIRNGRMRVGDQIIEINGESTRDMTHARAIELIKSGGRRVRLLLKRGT
Sequence of MAGI1_2, Q96QZ7 (Q96QZ7 456-580): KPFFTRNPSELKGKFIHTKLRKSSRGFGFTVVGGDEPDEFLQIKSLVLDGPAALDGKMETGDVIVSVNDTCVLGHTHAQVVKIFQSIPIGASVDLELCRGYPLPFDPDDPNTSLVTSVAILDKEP
Sequence of GRIP2_4, Q9C0E4 (Q9C0E4 446-548): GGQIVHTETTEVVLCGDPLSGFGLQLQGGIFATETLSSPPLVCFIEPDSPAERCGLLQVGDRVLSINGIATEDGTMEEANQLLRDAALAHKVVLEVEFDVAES
Sequence of SCRIB_2, Q14160 (Q14160 857-960): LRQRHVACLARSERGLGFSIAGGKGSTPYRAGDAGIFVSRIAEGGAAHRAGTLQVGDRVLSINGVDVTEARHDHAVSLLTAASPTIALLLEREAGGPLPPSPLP

Binder | pKd (APBA2_2, Q99767) | pKd (CASK, O14936) | pKd (DLG4_2, P78352) | pKd (DLG4_3, P78352) | pKd (FRMPD3, Q5JV73) | pKd (FRMPD4, Q14CM0) | pKd (GORASP1, Q9BQQ3) | pKd (GRIP1_3, Q9Y3R0) | pKd (GRIP1_5, Q9Y3R0) | pKd (GRIP2_4, Q9C0E4) | pKd (GRIP2_7, Q9C0E4) | pKd (IL16_4, Q14005) | pKd (Inadl_1, Q8NI35) | pKd (Inadl_6, Q8NI35) | pKd (LNX1_1, Q8TBB1) | pKd (LNX1_2, Q8TBB1) | pKd (LNX1_3, Q8TBB1) | pKd (MAGI1_1, Q96QZ7) | pKd (MAGI1_2, Q96QZ7) | pKd (MAGI2_5, Q86UL8) | also measured
DDPSTAETVL [ABCA7, Q8IZY2] | below the threshold | below the threshold | 3.7 | below the threshold | below the threshold | 4.1 | below the threshold | below the threshold | below the threshold | below the threshold | below the threshold | below the threshold | below the threshold | 3.98 | below the threshold | below the threshold | below the threshold | below the threshold | below the threshold | 4.27 | pKd (MAGI2_6, Q86UL8): 3.83; pKd (PDZRN3_1, Q9UPQ7): 4.09; pKd (PDZRN4_1, Q6ZMN7): 4.66; pKd (PICK1, Q9NRD5): below the threshold; pKd (RADIL, Q96JH8): 3.52; pKd (SCRIB_2, Q14160): below the threshold; pKd (SCRIB_3, Q14160): 4.73; pKd (SNTB1, Q13884): 4.87; pKd (SNX27, Q96L92): 5.6; pKd (TX1BP3, O14907): below the threshold
PEYLGLDVPV [ERBB2, P04626] | below the threshold | below the threshold | 3.48 | below the threshold | 3.78 | 4.39 | below the threshold | below the threshold | below the threshold | below the threshold | below the threshold | 3.72 | below the threshold | below the threshold | 3.58 | below the threshold | below the threshold | below the threshold | below the threshold | below the threshold | pKd (MAGI2_6, Q86UL8): below the threshold; pKd (PDZRN3_1, Q9UPQ7): 3.48; pKd (PDZRN4_1, Q6ZMN7): 3.52; pKd (PICK1, Q9NRD5): 4.25; pKd (RADIL, Q96JH8): below the threshold; pKd (SCRIB_2, Q14160): below the threshold; pKd (SCRIB_3, Q14160): below the threshold; pKd (SNTB1, Q13884): 3.92; pKd (SNX27, Q96L92): 3.94; pKd (TX1BP3, O14907): 4.19
HLRARKSEWV [GJD4, Q96KN9] | below the threshold | below the threshold | 4.11 | below the threshold | below the threshold | below the threshold | 5 | below the threshold | below the threshold | below the threshold | 4.04 | below the threshold | below the threshold | below the threshold | below the threshold | 3.75 | below the threshold | below the threshold | below the threshold | below the threshold | pKd (MAGI2_6, Q86UL8): 3.85; pKd (PDZRN3_1, Q9UPQ7): below the threshold; pKd (PDZRN4_1, Q6ZMN7): below the threshold; pKd (PICK1, Q9NRD5): below the threshold; pKd (RADIL, Q96JH8): 4.85; pKd (SCRIB_2, Q14160): below the threshold; pKd (SCRIB_3, Q14160): below the threshold; pKd (SNTB1, Q13884): below the threshold; pKd (SNX27, Q96L92): 4.38; pKd (TX1BP3, O14907): below the threshold
AKPSRISTVV [IQSEC2, Q5JU85] | below the threshold | below the threshold | 5.31 | 4.18 | below the threshold | below the threshold | 4.11 | below the threshold | below the threshold | below the threshold | below the threshold | 3.51 | below the threshold | below the threshold | 4.34 | 3.52 | below the threshold | below the threshold | 4.82 | 4.44 | pKd (MAGI2_6, Q86UL8): below the threshold; pKd (PDZRN3_1, Q9UPQ7): below the threshold; pKd (PDZRN4_1, Q6ZMN7): below the threshold; pKd (PICK1, Q9NRD5): 4.14; pKd (RADIL, Q96JH8): 4.32; pKd (SCRIB_2, Q14160): below the threshold; pKd (SCRIB_3, Q14160): 3.74; pKd (SNTB1, Q13884): 4.16; pKd (SNX27, Q96L92): 3.98; pKd (TX1BP3, O14907): 3.76
TSQESEDTYL [TBC1D10A, Q9BXI6] | below the threshold | below the threshold | below the threshold | below the threshold | 4.39 | 5.3 | below the threshold | below the threshold | below the threshold | below the threshold | below the threshold | below the threshold | below the threshold | 3.78 | below the threshold | below the threshold | below the threshold | below the threshold | below the threshold | below the threshold | pKd (MAGI2_6, Q86UL8): 3.98; pKd (PDZRN3_1, Q9UPQ7): 3.48; pKd (PDZRN4_1, Q6ZMN7): 3.8; pKd (PICK1, Q9NRD5): 4.11; pKd (RADIL, Q96JH8): below the threshold; pKd (SCRIB_2, Q14160): below the threshold; pKd (SCRIB_3, Q14160): 4.16; pKd (SNTB1, Q13884): 3.79; pKd (SNX27, Q96L92): 5.27; pKd (TX1BP3, O14907): below the threshold
